Biological target: T1, GST-EZH2 fragment A, N-terminal region (Domain I + Domain II), aa 1-522 (UniProt Q15910 1-522)
T1 construct: Cloned in pGEX-4T-1; also called fragment A of EZH2; source: E. coli BL21, purified (Glutathione Sepharose 4B)
T1 sequence (looked up): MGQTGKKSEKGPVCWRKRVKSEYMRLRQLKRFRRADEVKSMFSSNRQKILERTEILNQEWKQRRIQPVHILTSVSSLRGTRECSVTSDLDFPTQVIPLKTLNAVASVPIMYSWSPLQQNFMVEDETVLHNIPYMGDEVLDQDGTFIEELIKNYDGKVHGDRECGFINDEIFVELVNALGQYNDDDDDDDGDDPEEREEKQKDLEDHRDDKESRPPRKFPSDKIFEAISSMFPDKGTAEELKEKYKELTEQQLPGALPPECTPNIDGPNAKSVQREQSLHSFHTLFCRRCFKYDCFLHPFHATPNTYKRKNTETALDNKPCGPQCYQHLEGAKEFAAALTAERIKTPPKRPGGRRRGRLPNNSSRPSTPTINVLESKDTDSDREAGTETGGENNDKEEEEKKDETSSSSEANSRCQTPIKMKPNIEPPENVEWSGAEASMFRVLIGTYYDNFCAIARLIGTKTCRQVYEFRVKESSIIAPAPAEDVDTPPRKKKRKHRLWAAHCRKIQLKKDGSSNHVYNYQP
Assay: pull-down; in vitro pull-down with purified proteins: GST-EZH2 (aa 1-522) and MBP-TFIIIC102 fragment C (aa 524-886)
Details: both partners purified

B1: MBP-TFIIIC102 fragment C (aa 524-886) (domain or fragment, UniProt Q9Y5Q9 524-886, looked up)
chain: QDANAAQQELKLLLHRSTLLFSQGKMYGYVDTLLTMLAMLLKVAMNRAQVCLISSSKSGERHLYLIKVSRDKISDSNDQESANCDAKAIFAVLTSVLTKDDWWNLLLKAIYSLCDLSRFQEAELLVDSSLEYYSFYDDRQKRKELEYFGLSAAILDKNFRKAYNYIRIMVMENVNKPQLWNIFNQVTMHSQDVRHHRFCLRLMLKNPENHALCVLNGHNAFVSGSFKHALGQYVQAFRTHPDEPLYSFCIGLTFIHMASQKYVLRRHALIVQGFSFLNRYLSLRGPCQESFYNLGRGLHQLGLIHLAIHYYQKALELPPLVVEGIELDQLDLRRDIAYNLSLIYQSSGNTGMAQTLLYTYCSI
notes: source: purified
binding result: binds

— paper PMC4513857, “PRC2 regulates RNA polymerase III transcribed non-translated RNA gene transcription through EZH2 and SUZ12 interaction with TFIIIC complex” (Nucleic Acids Research, 2015)
